Results published in patent US20140088008A1 (Amgen, published 2014).

Assays:
myostatin [1] = target: T1, myostatin (UniProt O14793 267-375, limits assumed); test: cell-based or functional assay
T1 sequence (looked up): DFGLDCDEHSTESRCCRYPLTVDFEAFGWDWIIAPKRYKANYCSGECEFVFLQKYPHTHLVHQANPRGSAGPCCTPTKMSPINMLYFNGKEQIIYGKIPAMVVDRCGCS

activin A = target: T2, activin A (UniProt P08476 311-426); test: cell-based or functional assay
T2 sequence (looked up): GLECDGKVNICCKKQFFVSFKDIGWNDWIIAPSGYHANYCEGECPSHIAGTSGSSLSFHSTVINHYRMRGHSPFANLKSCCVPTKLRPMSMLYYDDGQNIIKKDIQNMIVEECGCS

GDF-11 = target: T3, GDF-11 (UniProt O95390 299-407); test: cell-based or functional assay
T3 sequence (looked up): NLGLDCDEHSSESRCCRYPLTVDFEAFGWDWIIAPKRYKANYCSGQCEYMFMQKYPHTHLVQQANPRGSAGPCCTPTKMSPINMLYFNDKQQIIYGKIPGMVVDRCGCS

myostatin [2] = target: T1, myostatin; test: BIAcore solution competition: soluble receptor titrated against 4 nM myostatin, free myostatin captured on immobilized human ActRIIB-ECD/Fc (R&D Systems) on a CM5 chip
Protocol: Blocking assays were carried out using immobilized human ActRIIB-ECD/Fc (R&D Systems, Minneapolis, Mn.) on a CM5 chip (Biacore, Inc., Piscataway, N.J.) in the presence and absence of each of the two soluble receptors ActRIIB-ECD/Fc and ActRIIB5/Fc using the BIAcore® assay system according to the manufacturer's instructions.
100% myostatin binding signal was determined in the absence of receptor in solution. Various concentrations of the soluble receptors were diluted in sample buffer and incubated with 4 nM myostatin before being injected over the receptor surface. Since only free myostatin molecules were able to bind to the chip, a decreased binding response with increasing concentration of the receptors indicated binding of the receptors to myostatin in solution. Plotting the binding signal vs. concentration of soluble receptor, ActRIIB-ECD/Fc and ActRIIB5/Fc were calculated to have an EC₅₀ of approximately 18 nM and 7 nM respectively.

B1: huActRIIB-ECD/Fc (Fc fusion)
chain: SGRGEAETRECIYYNANWELERTNQSGLERCEGEQDKRLHCYASWRNSSGTIELVKKGCWLDDFNCYDRQECVATEENPQVYFCCCEGNFCNERFTHLPEAGGPEV
notes: not shown: human IgG1 Fc, fused directly (no linker)
For B1, the “myostatin-neutralizing activity IC50 (nM) vs. 4 nM myostatin; pMARE-luc C2C12 luciferase reporter” value (myostatin [1]) was 51.1 nM, the “activin A neutralizing activity IC50 (nM) vs. 20 nM activin; pMARE-luc C2C12 luciferase reporter” value (activin A) was 340 nM and the “GDF-11-neutralizing activity IC50 (nM) vs. 4 nM GDF-11; pMARE-luc C2C12 luciferase reporter” value (GDF-11) was 89.9 nM. For the same binder, the EC50 (myostatin [2]) was ~18 nM.

B2: huActRIIB5/Fc (Fc fusion)
chain: SGRGEAETRECIYYNANWELERTNQSGLERCEGEQDKRLHCYASWRNSSGTIELVKKGCWLDDFNCYDRQECVATEENPQVYFCCCEGNFCNERFTHLPEAGGPEGPWASTTIPSGGPEATAAAGDQGSGALWLCLEGPAHEGGGGGGGG
notes: also called human activin type IIB5 receptor Fc fusion; not shown: human IgG1 Fc
B2 was tested, and the “myostatin-neutralizing activity IC50 (nM) vs. 4 nM myostatin; pMARE-luc C2C12 luciferase reporter” value (myostatin [1]) was 29.7 nM, the “activin A neutralizing activity IC50 (nM) vs. 20 nM activin; pMARE-luc C2C12 luciferase reporter” value (activin A) was 156 nM and the “GDF-11-neutralizing activity IC50 (nM) vs. 4 nM GDF-11; pMARE-luc C2C12 luciferase reporter” value (GDF-11) was 90.6 nM. The EC50 (myostatin [2]) was ~7 nM.
